Residue numbers refer to the chain shown, from its start.
T1: (NANP)3 (Plasmodium falciparum)
T1 chain: NANPNANPNANP

T2: (NANP)6 (Plasmodium falciparum)
T2 chain: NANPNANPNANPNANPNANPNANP

T3: (NANP)9 (Plasmodium falciparum)
T3 chain: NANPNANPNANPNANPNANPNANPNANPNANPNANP

T4: (NANP)7 (Plasmodium falciparum)
T4 chain: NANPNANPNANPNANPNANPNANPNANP

T5: peptide 29 (Plasmodium falciparum 3D7)
T5 chain: NANPNANPNANPNAN

T6: (NANP)8 (Plasmodium falciparum)
T6 chain: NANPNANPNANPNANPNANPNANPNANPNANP

T7: (NANP)5 (Plasmodium falciparum)
T7 chain: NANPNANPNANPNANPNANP

B1: 311 (antibody, V domains shown)
VH: QVQLVESGGGVVPPGRSLRLSCATSGFTFSNYGMHWVRQAPGKGLEWVAIIWYDGSRNFYAASVEGRFTISRDNSKNTLYLQMNSLRVEDTAVYYCARAAYYDTSGYGDYWGQGTLVTVSS
VL: QSVLTQPPSVSGAPGQTVTISCTGGSSNIGAGYDVHWYQQLPGTAPKLLIYGNINRPSGVPDRFSGSKSGTSASLAITGLQAEDEADYYCQSYDRRLSGSWVFGGGTKLTVL
B2: MGU12 (antibody, V domains shown)
VH: QVQLVESGGGVVQPGRSLRLSCAASGFSFSSYGMHWVRQAPGKGPEWVAVIWHDGSYSYYADSVRGRFTISRDNSKNTLYLQMNSLRPEDTGMYHCVKVEDYVRGSSHGGAFHIWGQGTMVTVSS
VL: DIQMTQSPSTLSASVGDRVTITCRASQTINNWLAWYQWKPGKAPELLIYKASSLESGVPSRFSGSGSGTEFTLTISSLQPDDFATYYCQQYSSYWTFGQGTKVDIK
B3: 317 (antibody, V domains shown)
VH: QMQLVESGGGVVQPGRSLRLSCTASGFTFSTYAMHWVRQSPGQGLQWVAVISYHSTNKYYEDSVRGRFTISRDNSKNTLYLQMNSLRAEDTAVYYCARDGYSSSFFDFWGQGTLVTVSS
VL: DIQMTQSPSTLSASVGDRVAITCRASQSISRWLAWYQQQPGKAPKLLMSGASVLESGVPSRFSGSGSGTEFTLTISSLQPDDFATYYCQHYNSYFVTFGQGTKVEIK
B4: 1210 (antibody, V domains shown)
VH: QVQLVESGGGVVQPGRSLRLSCAASGFTFSNYGMHWVRQAPGKGLEWVAVIWYDGSKKYYADSVKGRFTISRDNSKNTLYLQMNSLRAEDTAVYYCARVRDSSDYYGDAFDIWGQGTMVTVSS
VL: B2 VL with T28S, N30S, N31S, W38Q, E45K, S53N, S60L, S92N, S93N, D104E
B5: CIS43 (antibody, V domains shown)
VH: QVQLVQSGAEVKKPGASVKVSCKASGYTFTSYAIHWVRQAPGQRLEWMGWIKAGNGNTRYSQKFQDRVTITRDTSTTTAYMELSSLRSEDTAVYYCALLTVLTPDDAFDIWGQGTMVTVSS
VL: not shown

Target: T1, (NANP)3
Experiment: ELISA

Binder | binding result
B1 | binds
B2 | binds
B3 | binds

Target: T2, (NANP)6
Experiment: ELISA

Binder | binding result
B1 | binds
B2 | binds
B4 | binds

Target: T3, (NANP)9
Experiment: ELISA

Binder | binding result
B1 | binds
B2 | binds
B4 | binds
B3 | binds
B5 | binds

Target: T4, (NANP)7
Experiment: ELISA

Binder | binding result
B1 | binds
B2 | binds
B4 | binds
B3 | binds

Target: T5, peptide 29
Experiment: ELISA

Binder | binding result
B1 | binds
B2 | binds
B4 | binds
B3 | binds

Target: T6, (NANP)8
Experiment: ELISA

Binder | binding result
B1 | binds
B2 | binds
B4 | binds
B3 | binds

Target: T7, (NANP)5
Experiment: ELISA

Binder | binding result
B1 | binds
B2 | binds
B3 | binds
